Assay [1] concerns the target T1, mouse IgG1 Fc-mature human GDF15 fusion protein (mFc-rhGDF15) (mouse; human).
T1 construct: Made in CHOK1SV cells, purified by Protein A and size exclusion; also called mouse Fc fused to human GDF15
T1 chain: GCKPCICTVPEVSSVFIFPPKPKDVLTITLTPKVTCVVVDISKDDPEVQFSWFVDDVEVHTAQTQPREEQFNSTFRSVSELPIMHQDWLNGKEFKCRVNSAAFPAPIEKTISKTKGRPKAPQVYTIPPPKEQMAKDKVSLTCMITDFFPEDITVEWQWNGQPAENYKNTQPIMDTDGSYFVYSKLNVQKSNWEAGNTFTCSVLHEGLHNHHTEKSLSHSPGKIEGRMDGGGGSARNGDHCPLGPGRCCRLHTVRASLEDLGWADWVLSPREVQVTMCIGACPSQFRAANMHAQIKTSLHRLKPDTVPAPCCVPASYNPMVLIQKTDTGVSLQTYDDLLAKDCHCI
The assay is described as follows: BLI Octet QK, 30 C, antibody from supernatant on anti-human Fc sensor, 400 nM mFc-rhGDF15. How it is done:
The Octet analysis was performed at 30° C. using 1× Kinetics Buffer (ForteBio, Inc.) as assay buffer. Anti-human IgG Fc Capture (AHC) biosensors (ForteBio, Inc.) were used to capture human antibodies onto the sensors. Sensors were saturated in assay buffer for at 300 seconds before the assay. […] Baseline was established by dipping the sensors into 1× assay buffer for 200 seconds. Next, association was monitored for 220 seconds in 400 nM mFc-rhGDF15 protein, and dissociation was followed for 600 seconds in buffer alone.
Kinetic parameters of the antibody, kₐ, kd, and KD were determined.

The target in assay [2] is T1, mouse IgG1 Fc-mature human GDF15 fusion …. Description: SPR Biacore T100, 37 C, purified antibody captured by anti-human IgG Fc, antigen in solution. How it is done: (§1) Goat anti-human IgGs (Fc fragment specific, Jackson ImmunoResearch, West Grove, Pa.) were immobilized on carboxymethylated dextran CM4 sensor chips by amine coupling, according to a standard protocol. Analyses were performed at 37° C. using PBS containing 0.05% surfactant P20 as running buffer. The antibodies were captured in individual flow cells at a flow rate of 10 μL/minute. Injection time was varied for each antibody to yield an Rmax between 30 and 60 RU. […] The dissociation phase was monitored for up to 1200 seconds. The surface was then regenerated with two 60-second injections of 10 mM Glycine-HCl, pH 2.25, at a flow rate of 30 μL/minute.
Kinetic parameters were determined using the kinetic function of the BIAevaluation software (GE Healthcare) with double reference subtraction.

Assay [3] addresses T2, rabbit IgG1 Fc-mature mouse GDF15 fusion protein (rFc-rmGDF15) (rabbit; mouse).
T2 construct: also called rabbit Fc mature recombinant mouse GDF15
T2 chain: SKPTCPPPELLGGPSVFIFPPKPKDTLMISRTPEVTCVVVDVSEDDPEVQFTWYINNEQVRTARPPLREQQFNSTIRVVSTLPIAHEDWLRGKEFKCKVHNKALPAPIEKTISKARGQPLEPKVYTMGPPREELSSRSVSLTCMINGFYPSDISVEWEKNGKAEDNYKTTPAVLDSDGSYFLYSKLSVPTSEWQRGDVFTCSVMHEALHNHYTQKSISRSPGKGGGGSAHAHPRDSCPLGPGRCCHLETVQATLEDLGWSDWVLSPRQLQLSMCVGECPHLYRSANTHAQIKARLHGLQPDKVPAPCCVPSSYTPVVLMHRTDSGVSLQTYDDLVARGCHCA
The description is as above. How it is done:
as §1, with “1500” for “1200”
(§2) Kinetic parameters were determined using the kinetic function of the BIAevaluation software (GE Healthcare) with double reference subtraction. Kinetic parameters for each antibody, kₐ (association rate constant), kd (dissociation rate constant), and KD (equilibrium dissociation constant) were determined Kinetic values of purified monoclonal antibodies on mFc-rhGDF15, mature human GDF15, rFc-rmGDF15, and mFc-rcGDF15 are summarized in Table 27.

In assay [4] the target is T3, mouse Fc mature recombinant cynomolgus monkey GDF15 (mFc-rcGDF15) (mouse; cynomolgus monkey, UniProt G7PWZ3 193-308).
T3 construct: mature; not shown: mouse Fc and any linker
T3 sequence (looked up): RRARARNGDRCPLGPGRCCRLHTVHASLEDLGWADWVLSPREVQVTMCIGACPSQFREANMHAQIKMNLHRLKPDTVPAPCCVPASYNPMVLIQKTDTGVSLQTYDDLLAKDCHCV
The assay is described as above. How it is done:
as §1, with “1500” for “1200”
as §2

The target of a further assay is T4, cleaved-rhGDF15 (human, UniProt Q99988 197-308).
T4 sequence: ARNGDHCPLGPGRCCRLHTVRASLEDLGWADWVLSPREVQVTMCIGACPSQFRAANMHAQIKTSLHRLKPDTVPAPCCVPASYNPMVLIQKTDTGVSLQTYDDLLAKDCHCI
The assay is described as above. The protocol: as §1, with “1500” for “1200”
as §2

The target of assay [5] is T1, mouse IgG1 Fc-mature human GDF15 fusion …. The description is as above. How it is done: as §1, with “1500” for “1200”
as §2

From patent US20160083465A1 (AVEO PHARMACEUTICALS, published 2016) come the findings set out here.

B1: Hu14F11-1 (antibody, human IgG1, kappa)
heavy: not shown
light: DIVMTQSQKFMSTSVGDRVSVTCKASQNVGTNVAWYQQKPGQSPKALIYSPSYRYSGVPDRFTGSGSGTDFTLTISNVQSEDLAEYFCQQYNSYPHTFGGGTKLEMKRTVAAPSVFIFPPSDEQLKSGTASVVCLLNNFYPREAKVQWKVDNALQSGNSQESVTEQDSKDSTYSLSSTLTLSKADYEKHKVYACEVTHQGLSSPVTKSFNRGEC
notes: Mouse variable regions, human IgG1 and kappa constant regions; also called Chimeric 14F11
Regarding B1, in assay [1], binding was characterised by a dissociation constant (Kd) of 0.032 nM, the koff came to 1.9e-05 s⁻¹ and the on-rate (kon) stood at 630000 M⁻¹ s⁻¹. In assay [2], this molecule registered a Kd of 0.16 nM, a koff of 0.00046 s⁻¹ and a kon of 3e+06 M⁻¹ s⁻¹.

B2: Hu14F11-24 (antibody, human IgG1, kappa)
heavy: not shown
light: DIVMTQSQKFMSTSVGDRVSVTCKASQNVGTNVAWFQQKPGQSPKALIYSASYRYSGVPDRFTGSGSGTDFILTISNVQSEDLAEYFCQQYNNYPLTFGAGTKLELKRTVAAPSVFIFPPSDEQLKSGTASVVCLLNNFYPREAKVQWKVDNALQSGNSQESVTEQDSKDSTYSLSSTLTLSKADYEKHKVYACEVTHQGLSSPVTKSFNRGEC
notes: Chimeric 14F11 heavy chain with chimeric 06C11 light chain, human IgG1 kappa; tested in supernatant; also called chimeric light 06C11 with chimeric heavy 14F11
In assay [1], B2 displayed a Kd of 0.31 nM, a koff of 0.00022 s⁻¹ and a kon of 710000 M⁻¹ s⁻¹.

B3: Hu14F11-23 (antibody, human IgG1, kappa)
heavy: not shown
light: DIVMTQSQKFMSTSVGDRVSVTCKASQNVGTNVAWYQQKPGQSPKALIYSPSYRYSGVPDRFTGSGSGTDFTLTISNVQSEDLAEYFCQQYNSYPHTFGGGTKLEMKRTVAAPSVFIFPPSDEQLKSGTASVVCLLNNFYPREAKVQWKVDNALQSGNSQESVTEQDSKDSTYSLSSTLTLSKADYEKHKVYACEVTHQGLSSPVTKSFNRGEC
notes: Chimeric 06C11 heavy chain with chimeric 14F11 light chain, human IgG1 kappa; tested in supernatant; also called chimeric light 14F11 with chimeric heavy 06C11
Consider B3, for which, in assay [1], the dissociation constant Kd was 0.18 nM, the koff amounted to 6.2e-05 s⁻¹ and the kon turned out to be 340000 M⁻¹ s⁻¹.

B4: Hu01G06-138 (antibody, human IgG1, kappa)
heavy: not shown
light: DIQMTQSPSSLSASVGDRVTITCRTSENLHNYLAWYQQKPGKAPKLLIYDAKTLADGVPSRFSGSGSGTDYTLTISSLQPEDFATYYCQHFWSSPYTFGQGTKLEIKRTVAAPSVFIFPPSDEQLKSGTASVVCLLNNFYPREAKVQWKVDNALQSGNSQESVTEQDSKDSTYSLSSTLTLSKADYEKHKVYACEVTHQGLSSPVTKSFNRGEC
As for B4, the Kd in assay [3] was 0.044 nM; in assay [4], 0.025 nM; with cleaved-rhGDF15, 0.0045 nM; in assay [5] it was 0.011 nM. Besides, the koff stood at 0.0008 s⁻¹ in assay [3], 5.3e-05 s⁻¹ in assay [4], 2.5e-05 s⁻¹ in the assay with cleaved-rhGDF15 and 4.1e-05 s⁻¹ in assay [5]. Besides, the kon is 1.9e+07 M⁻¹ s⁻¹ in assay [3], 2.3e+06 M⁻¹ s⁻¹ in assay [4], 7.9e+06 M⁻¹ s⁻¹ in the assay with cleaved-rhGDF15 and 5.9e+06 M⁻¹ s⁻¹ in assay [5].

B5: Hu01G06-135 (antibody, human IgG1, kappa)
heavy: not shown
light: DIQMTQSPSSLSASVGDRVTITCRTSENLHNYLAWYQQKPGKAPKLLIYDAKTLADGVPSRFSGSGSGTDYTLTISSLQPEDFATYYCQHFWSSPYTFGQGTKLEIKRTVAAPSVFIFPPSDEQLKSGTASVVCLLNNFYPREAKVQWKVDNALQSGNSQESVTEQDSKDSTYSLSSTLTLSKADYEKHKVYACEVTHQGLSSPVTKSFNRGEC
As to B5, the Kd in assay [3] turned out to be 0.055 nM; in assay [4] it was 0.038 nM; with cleaved-rhGDF15 it was 0.01 nM; in assay [5], 0.014 nM. In addition, the koff came out at 0.0019 s⁻¹ in assay [3], 7.9e-05 s⁻¹ in assay [4], 6.2e-05 s⁻¹ in the assay with cleaved-rhGDF15 and 4.4e-05 s⁻¹ in assay [5]. Moreover, the kon in assay [3] amounted to 3.7e+07 M⁻¹ s⁻¹; in assay [4], 2.2e+06 M⁻¹ s⁻¹; in the assay with cleaved-rhGDF15, 7.3e+06 M⁻¹ s⁻¹; in assay [5] it was 5.3e+06 M⁻¹ s⁻¹.

B6: Hu01G06-127 (antibody, human IgG1, kappa)
heavy: not shown
light: DIQMTQSPSSLSASVGDRVTITCRTSENLHNYLAWYQQKPGKSPKLLIYDAKTLADGVPSRFSGSGSGTDYTLTISSLQPEDFATYYCQHFWSDPYTFGQGTKLEIKRTVAAPSVFIFPPSDEQLKSGTASVVCLLNNFYPREAKVQWKVDNALQSGNSQESVTEQDSKDSTYSLSSTLTLSKADYEKHKVYACEVTHQGLSSPVTKSFNRGEC
With B6, the Kd in assay [3] was determined as 0.051 nM; in assay [4], 0.0095 nM; with cleaved-rhGDF15, 0.01 nM; in assay [5], 0.018 nM. Moreover, the koff in assay [3] amounted to 0.0021 s⁻¹; in assay [4], 1.6e-05 s⁻¹; in the assay with cleaved-rhGDF15, 3.6e-05 s⁻¹; in assay [5] it was 4.2e-05 s⁻¹. For the same molecule, the kon in assay [3] came out at 3.9e+07 M⁻¹ s⁻¹; in assay [4], 1.8e+06 M⁻¹ s⁻¹; with cleaved-rhGDF15, 6.1e+06 M⁻¹ s⁻¹; in assay [5] it was 4.6e+06 M⁻¹ s⁻¹.

B7: Hu01G06-122 (antibody, human IgG1, kappa)
heavy: not shown
light: DIQMTQSPSSLSASVGDRVTITCRTSENLHNYLAWYQQKPGKAPKLLIYDAKTLADGVPSRFSGSGSGTDYTLTISSLQPEDFATYYCQHFWSSPYTFGQGTKLEIKRTVAAPSVFIFPPSDEQLKSGTASVVCLLNNFYPREAKVQWKVDNALQSGNSQESVTEQDSKDSTYSLSSTLTLSKADYEKHKVYACEVTHQGLSSPVTKSFNRGEC
Consider B7, for which the Kd was found to be 0.063 nM in assay [3], 0.01 nM in assay [4], 0.0079 nM with cleaved-rhGDF15 and 0.0065 nM in assay [5]. Moreover, the koff in assay [3] was 0.0014 s⁻¹; in assay [4], 2.4e-05 s⁻¹; with cleaved-rhGDF15 it was 3.4e-05 s⁻¹; in assay [5], 2.1e-05 s⁻¹. In addition, the kon in assay [3] came to 2.2e+07 M⁻¹ s⁻¹; in assay [4], 2.3e+06 M⁻¹ s⁻¹; with cleaved-rhGDF15, 7.9e+06 M⁻¹ s⁻¹; in assay [5], 5.9e+06 M⁻¹ s⁻¹.

B8: Hu01G06-146 (antibody, human IgG1, kappa)
heavy: not shown
light: DIQMTQSPSSLSASVGDRVTITCRTSENLHNYLAWYQQKPGKSPKLLIYDAKTLADGVPSRFSGSGSGTDYTLTISSLQPEDFATYYCQHFWSDPYTFGQGTKLEIKRTVAAPSVFIFPPSDEQLKSGTASVVCLLNNFYPREAKVQWKVDNALQSGNSQESVTEQDSKDSTYSLSSTLTLSKADYEKHKVYACEVTHQGLSSPVTKSFNRGEC
As for B8, the Kd worked out at 0.063 nM in assay [3], 0.008 nM in assay [4], 0.011 nM with cleaved-rhGDF15 and 0.0093 nM in assay [5]. Further, the koff in assay [3] amounted to 0.00072 s⁻¹; in assay [4], 1.5e-05 s⁻¹; in the assay with cleaved-rhGDF15 it was 5.2e-05 s⁻¹; in assay [5] it was 2.6e-05 s⁻¹. Besides, the kon worked out at 1.1e+07 M⁻¹ s⁻¹ in assay [3], 2e+06 M⁻¹ s⁻¹ in assay [4], 6.5e+06 M⁻¹ s⁻¹ with cleaved-rhGDF15 and 5.3e+06 M⁻¹ s⁻¹ in assay [5].
